{
  "source": "patent US20200392228A1",
  "about": "(PANDION OPERATIONS, published 2020)",
  "binders": {"B1": {"name": "MAdCAM antibody Clone ID 1 of Table 6 (scFv) (scFv)", "scFv": "EVQLLESGGGLVQPGGSLRLSCAASGFTFSSYGMHWVRQAPGKGLEWVAVISDDGSDKYYADSVKGRFTISRDNSKNTLYLQMNSLRAEDTAVYYCTTSKYYYYYGMDVWGQGTTVTVSSGGGGSGGGGSGGGGSGGGGSDIQMTQSPSSLSASVGDRVTITCQASQDISKSLNWYQQKPGKAPKLLIYAASSLQSGVPSRFSGSGSGTDFTLTISSLQPEDFATYYCQQGYSTPLTFGGGTKVEIK"}, "B2": {"name": "MAdCAM antibody Clone ID 66 of Table 6 (scFv) (scFv)", "scFv": "EVQLLESGGGLVQPGGSLRLSCAASGFTFSSYWMHWVRQAPGKGLEWVAAISYDGKYKDYEDSVKGRFTISRDNSKNTLYLQMNSLRAEDTAVYYCARENKQWLASFDYWGQGTLVTVSSGGGGSGGGGSGGGGSGGGGSDIQMTQSPSSLSASVGDRVTITCQASQDISNFVNWYQQKPGKAPKLLIYAANLRSGVPSRFSGSGSGTDFTLTISSLQPEDFATYYCQQANSFPVTFGPGTKVDIK"}, "B3": {"name": "MAdCAM antibody Clone ID 61 of Table 6 (scFv) (scFv)", "scFv": "EVQLLESGGGLVQPGGSLRLSCAASEFTFSNAWMSWVRQAPGKGLEWVASISSTSAYIDYADSVKGRFTISRDNSKNTLYLQMNSLRAEDTAVYYCAREVVGATTFDYWGQGTLVTVSSGGGGSGGGGSGGGGSGGGGSDIQMTQSPSSLSASVGDRVTITCRASQSISTWLAWYQQKPGKAPKLLIYAASSLQSGVPSRFSGSGSGTDFTLTISSLQPEDFATYYCQQANAFPPTFGQGTRLEIK"}, "B4": {"name": "MAdCAM antibody Clone ID 60 of Table 6 (scFv) (scFv)", "scFv": "EVQLLESGGGLVQPGGSLRLSCAASGFTFDDYTMHWVRQAPGKGLEWVSDISGSGGSTYYADSVKGRFTISRDNSKNTLYLQMNSLRAEDTAVYYCAKDVVVAGTPLHFDYWGQGTLVTVSSGGGGSGGGGSGGGGSGGGGSDIQMTQSPSSLSASVGDRVTITCQASQDISNYLNWYQQKPGKAPKLLIYAASYLQSGVPSRFSGSGSGTDFTLTISSLQPEDFATYYCQQAHNYPITFGQGTRLEIK"}, "B5": {"name": "MAdCAM antibody Clone ID 64 of Table 6 (scFv) (scFv)", "scFv": "EVQLLESGGGLVKPGGSLRLSCAASGFAFSSHWMHWVRQAPGKGLEWVAGTSGSGESRDYADFVKGRFTISRDDSKNTLYLQMNSLKTEDTAVYYCARETYYYYYMDVWGKGTTVTVSSGGGGSGGGGSGGGGSGGGGSDIQMTQSPSSLSASVGDRVTITCRASQGISNYLAWYQQKPGKAPKLLIYDAANLEGGVPSRFSGSGSGTDFTLTISSLQPEDFATYYCQQSDIFPPTFGQGTKVEIK"}, "B6": {"name": "MAdCAM antibody Clone ID 65 of Table 6 (scFv) (scFv)", "scFv": "QVQLVQSGAEVKKPGASVKVSCKASGYTFTRHWIHWVRQAPGQGLEWMGWINVKTGGAGYAQKFQGRVTMTRDTSTSTVYMELSSLRSEDTAVYYCARESSGWYGTDVWGQGTTVTVSSGGGGSGGGGSGGGGSGGGGSDIQMTQSPSSLSASVGDRATITCRASQSISNYLAWYQQKPGKAPKLLIYAASSLQSGVPSRFSGSGSGTDFTLTISSLQPEDFATYYCQQSNSFPLTFGGGTKVEIK"}, "B7": {"name": "MAdCAM antibody Clone ID 44 of Table 7 (IgG) (antibody, V domains shown)", "VH": "not shown", "VL": "DIQMTQSPSSLSASVGDRVTITCQASQDISNYLNWYQQKPGKAPKLLIYAASSLQSGVPSRFSGSGSGTDFTLTISSLQPEDFATYYCQQTYSGWTFGPGTKVDIK", "notes": "IgG format"}, "B8": {"name": "MAdCAM antibody Clone ID 38 of Table 7 (IgG) (antibody, V domains shown)", "VH": "QVQLVQSGAEVKKPGASVKVSCKASGYTFTDYFLHWVRQAPGQGLEWMGWMNPTSGNTGYAQKFQGRVTMTRDTSTSTVYMELSSLRSEDTAVYYCAREGEGSGFDYWGQGTLVTVSS", "VL": "DIQMTQSPSSLSASVGDRVTITCRASQGINSWLAWYQQKPGKAPKLLIYDASNLETGVPSRFSGSGSGTDFTLTISSLQPEDFATYYCQQSYSTPLTFGGGTKVEIK", "notes": "IgG format"}, "B9": {"name": "MAdCAM antibody Clone ID 42 of Table 7 (IgG) (antibody, V domains shown)", "VH": "QVQLVQSGAEVKKPGASVKVSCKASGYTLTDYYMHWVRQAPGQGLEWMGIINPSGGSTSYAQKFQGRVTMTRDTSTSTVYMELSSLRSEDTAVYYCAREEYSSSSGYFDYWGQGTLVTVSS", "VL": "B8 VL with N30S, D50A, N53S, E55Q, T56S, G100Q", "notes": "IgG format"}, "B10": {"name": "MAdCAM antibody Clone ID 41 of Table 7 (IgG) (antibody, V domains shown)", "VH": "QVQLVQSGAEVKKPGASVKVSCKASGYTFTSYYMHWVRQAPGQGLEWMGIINPSGGSTSYAQKFQGRVTMTRDTSTSTVYMELSSLRSEDTAVYYCARDTGYSYGRYYYYGMDVWGQGTLVTVSS", "VL": "B8 VL with G28S, N30G, S31R, E55Q, T56S, T94I, L96I, G100Q", "notes": "IgG format"}, "B11": {"name": "MAdCAM antibody Clone ID 39 of Table 7 (IgG) (antibody, V domains shown)", "VH": "QVQLVQSGAEVKKPGASVKVSCKASGYTFTSYYMHWVRQAPGQGLEWMAWMNPNSGNTGYAQKFQGRVTMTRDTSTSTVYMELSSLRSEDTAVYYCARDYDFWSGSLGYWGQGTLVTVSS", "VL": "B8 VL with N30S, S31N, W32Y, D50A, N53S, E55Q, T56S, L96W, G100Q", "notes": "IgG format"}, "B12": {"name": "MAdCAM antibody Clone ID 43 of Table 7 (IgG) (antibody, V domains shown)", "VH": "QVQLVQSGAEVKKPGASVKVSCKASGYTFTSYGISWVRQAPGQGLEWMGWMHPKSGDTGLTQKFQGRVTMTRDTSTSTVYMELSSLRSEDTAVYYCARDTPYYYYGMDVWGQGTTVTVSS", "VL": "B8 VL with G28S, N30S, D50A, N53S, E55Q, T56S, T94V, L96I, G100Q", "notes": "IgG format"}, "B13": {"name": "MAdCAM antibody Clone ID 52 of Table 7 (IgG) (antibody, V domains shown)", "VH": "EVQLLESGGGLVQPGGSLRLSCAASGFTFDDYGMSWVRQAPGKGLEWVSYISSSSSYIYYADSVKGRFTISRDNSKNTLYLQMNSLRAEDTAVYYCAREIAAAGFYGMDVWGQGTTVTVSS", "VL": "not shown", "notes": "IgG format"}, "B14": {"name": "MAdCAM antibody Clone ID 57 of Table 7 (IgG) (antibody, V domains shown)", "VH": "EVQLLESGGGLVQPGGSLRLSCAASGFSVSSNYMSWVRQAPGKGLEWVAGISYDGSSKPYADSVKGRFTISRDNSKNTLYLQMNSLRAEDTAVYYCARSRGIAARPLQHWGQGTLVTVSS", "VL": "not shown", "notes": "IgG format"}},
  "note": "Substitutions are numbered along the chain they refer to.",
  "data": [
    {"biological_target": "T1, human MAdCAM protein (human, UniProt Q13477 19-317)", "T1 construct": "used for Octet, SPR, ELISA and plate capture; construct not described; also called recombinant human MAdCAM; soluble monomeric human MAdCAM", "T1 sequence (looked up)": "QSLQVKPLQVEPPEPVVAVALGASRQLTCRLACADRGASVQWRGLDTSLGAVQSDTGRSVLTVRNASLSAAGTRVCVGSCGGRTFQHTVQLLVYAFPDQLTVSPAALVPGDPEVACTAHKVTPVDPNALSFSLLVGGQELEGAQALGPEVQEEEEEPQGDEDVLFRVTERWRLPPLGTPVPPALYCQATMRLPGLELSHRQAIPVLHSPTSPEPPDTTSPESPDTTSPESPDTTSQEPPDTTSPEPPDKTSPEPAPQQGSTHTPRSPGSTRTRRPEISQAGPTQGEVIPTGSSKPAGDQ", "experiment": "Octet", "values": [
      {"binder": "B1", "binding result": "binds"},
      {"binder": "B2", "binding result": "binds"},
      {"binder": "B3", "binding result": "binds"},
      {"binder": "B4", "binding result": "binds"},
      {"binder": "B5", "binding result": "binds"},
      {"binder": "B6", "binding result": "binds"}
    ]},
    {"biological_target": "T2, human MAdCAM expressed on cells (human, UniProt Q13477 19-382)", "T2 construct": "whole, on cells; also called MADCAM1", "T2 sequence (looked up)": "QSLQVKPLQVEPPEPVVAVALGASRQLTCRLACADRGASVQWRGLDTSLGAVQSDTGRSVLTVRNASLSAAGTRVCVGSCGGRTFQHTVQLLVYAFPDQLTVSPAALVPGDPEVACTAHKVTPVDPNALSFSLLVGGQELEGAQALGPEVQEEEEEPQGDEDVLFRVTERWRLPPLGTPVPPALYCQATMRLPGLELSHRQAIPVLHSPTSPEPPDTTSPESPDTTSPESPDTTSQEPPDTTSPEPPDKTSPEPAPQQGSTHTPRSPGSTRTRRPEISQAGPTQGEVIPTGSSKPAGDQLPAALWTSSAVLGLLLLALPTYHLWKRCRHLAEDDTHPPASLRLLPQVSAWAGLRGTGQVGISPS", "experiment": "cell binding", "values": [
      {"binder": "B1", "binding result": "binds"},
      {"binder": "B2", "binding result": "binds"},
      {"binder": "B3", "binding result": "binds"},
      {"binder": "B4", "binding result": "binds"},
      {"binder": "B5", "binding result": "binds"},
      {"binder": "B6", "binding result": "binds"}
    ]},
    {"biological_target": "T3, mouse MAdCAM expressed on cells (mouse, UniProt Q61826 22-405)", "T3 construct": "whole, on cells", "T3 sequence (looked up)": "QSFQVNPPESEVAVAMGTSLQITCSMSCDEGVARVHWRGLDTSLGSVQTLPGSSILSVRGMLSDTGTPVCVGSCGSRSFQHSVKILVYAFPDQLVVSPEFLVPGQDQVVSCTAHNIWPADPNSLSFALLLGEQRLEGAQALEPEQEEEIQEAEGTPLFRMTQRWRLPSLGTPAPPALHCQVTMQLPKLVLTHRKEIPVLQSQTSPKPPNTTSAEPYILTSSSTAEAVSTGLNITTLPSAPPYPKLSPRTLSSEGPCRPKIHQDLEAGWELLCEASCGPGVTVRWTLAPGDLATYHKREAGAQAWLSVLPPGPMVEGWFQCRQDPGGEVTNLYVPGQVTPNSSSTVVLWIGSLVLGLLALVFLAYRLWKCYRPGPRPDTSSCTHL", "experiment": "cell binding", "values": [
      {"binder": "B2", "binding result": "binds"},
      {"binder": "B3", "binding result": "binds"},
      {"binder": "B4", "binding result": "binds"},
      {"binder": "B5", "binding result": "binds"},
      {"binder": "B6", "binding result": "binds"}
    ]},
    {"biological_target": "T2, human MAdCAM expressed on cells", "experiment": "cell binding", "remark": "another data set of the same source", "values": [
      {"binder": "B7", "binding result": "binds"},
      {"binder": "B8", "binding result": "binds"},
      {"binder": "B9", "binding result": "binds"},
      {"binder": "B10", "binding result": "binds"},
      {"binder": "B11", "binding result": "binds"},
      {"binder": "B12", "binding result": "binds"},
      {"binder": "B13", "binding result": "binds"},
      {"binder": "B14", "binding result": "binds"}
    ]},
    {"biological_target": "T3, mouse MAdCAM expressed on cells", "experiment": "cell binding", "remark": "another data set of the same source", "values": [
      {"binder": "B7", "binding result": "no binding"},
      {"binder": "B8", "binding result": "no binding"},
      {"binder": "B9", "binding result": "no binding"},
      {"binder": "B10", "binding result": "no binding"},
      {"binder": "B11", "binding result": "no binding"},
      {"binder": "B12", "binding result": "no binding"},
      {"binder": "B13", "binding result": "no binding"},
      {"binder": "B14", "binding result": "no binding"}
    ]}
  ]
}
